From the supplement of paper PMC10567573

B1: IQUB (parent)
chain: KIREKEEWIKLDYHRRHNPKTNED

Variants of: B1
Assay: protein stability index of a GFP-peptide fusion (GPS, HEK-293T) (PSI 1-6); higher = more stable
Conditions: c terminus: a fixed tail appended
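Also: lentivirally expressed fusions sorted by FACS into six bins by GFP to DsRed ratio, PSI derived from sequencing read proportions per bin multiplied by bin number.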

Variant	protein stability index
N22H	4.22
N22P	4.36
N22Y	4.01
N22Q	4.66
N22V	4.15
N22M	4.29
N22G	4.79
N22I	4.01
N22R	4.03
N22L	4.2
N22W	2.8
N22F	3.84
N22S	4.72
N22K	4.29
H17N	4.16
H17Y	3.99
H17M	4.21
H17D	5.08
H17P	5.17
H17V	4.87
H17E	4.11
H17L	4.67
H17R	4.51
H17Q	5.08

Variant	protein stability index
H17A	4.71
H17I	4.5
E7P	3.6
E7K	4.03
E7Q	4.19
E7M	3.27
E7G	3.8
E7R	3.51
E7C	4.61
E7H	4.34
E7T	4.37
E7F	3.34
E7N	4.45
E7I	3.36
E7Y	3.31
E7S	4.46
K5M	3.04
K5T	4.21
K5G	4.6
K5R	4.64
K5F	3.67
K5W	3.74
K5D	4.51
K5H	4.51

Variant	protein stability index
K5V	3.4
K5N	4.7
K5C	4.09
K5L	3.13
D12L	3.79
D12T	3.79
D12W	3.79
D12A	4.07
D12F	4.01
D12G	4.51
D12V	3.65
D12Q	4.55
D12R	4.21
D12C	3.93
D12Y	3.62
D12M	3.7
D12S	3.59
D12E	4.27
D12H	4.41
K10F	4.68
K10Y	4.31
K10G	4.9
K10C	4.15
K10Q	4.74

Variant	protein stability index
K10T	4.97
K10I	4.16
K10D	4.99
K10A	4.65
K10V	4.2
K10W	3.17
K10E	5.3
K10S	4.68
K10N	4.48
K10L	4.04
K10H	4.56
K10P	5.26
K20V	4.72
K20Y	4.03
K20P	5.07
K20Q	4.39
K20F	2.51
K20D	4.65
K20T	4.64
K20C	4.27
K20A	4.52
K20H	4.64
K20R	4.66
K20W	3.08

Variant	protein stability index
K20I	4.37
R16K	3.6
R16N	4.91
R16Y	4.31
R16M	4.63
R16I	4.38
R16H	4.4
R16W	4.22
R16E	5.2
R16D	3.61
R16P	4.75
R16G	4.74
R16C	4.52
T21L	4.13
T21K	5.05
T21D	4.79
T21N	4.75
T21W	3.77
T21F	4.53
T21G	5.12
T21S	4.76
T21M	4.1
T21Y	4.52
T21R	4.82

Variant	protein stability index
T21A	5.18
T21H	4.08
T21C	4.57
T21Q	4.75
T21P	4.74
T21I	4.33
R3D	5.34
R3E	5.08
R3T	4.61
R3M	4.02
R3K	4.67
R3P	4.97
R3Q	4.6
R3V	4.52
R3I	4.35
R3A	5.05
R3G	5.16
R3Y	4.29
R3L	4.22
R3F	4.3
R3W	4.21
R3H	4.67
R15I	4.29
R15S	5.22

Variant	protein stability index
R15V	4.97
R15C	3.89
R15A	5.05
R15D	5.33
R15T	4.76
R15M	4.3
R15W	4.16
R15K	4.64
R15F	4.23
R15E	4.46
R15H	4.36
R15P	4.17
R15Q	3.98
E23I	4.13
E23C	3.91
E23Q	4.06
E23T	4.54
E23W	5.01
E23N	4.24
E23F	4.45
E23R	3.72
E23H	4.18
E23P	4.28
E23L	4.17

Variant	protein stability index
E23G	4.44
E23S	4.25
K1N	5.44
K1Q	4.96
K1D	4.99
K1T	4.87
K1P	4.99
K1M	4.14
K1W	3.75
K1I	4.02
K1E	4.62
K1C	4.07
K1A	4.79
E4A	4.38
E4L	3.81
E4Y	4.03
E4C	3.71
E4F	3.84
E4M	4.06
E4G	3.85
E4Q	3.82
E4R	3.99
E4D	4.48
E4T	4

Variant	protein stability index
E4I	4
E4V	3.32
E4N	4.67
E4P	4.02
E4H	4.32
E4W	3.75
E4K	3.86
H14T	4.5
H14K	3.87
H14P	4.51
H14L	4.1
H14E	3.72
H14A	4.8
H14C	4.46
H14Q	5.02
H14Y	4.41
H14D	5.35
H14N	4.89
H14F	4.34
H14S	4.61
L11C	4.52
L11I	3.78
L11D	4.93
L11Y	4.81

Variant	protein stability index
L11T	5.2
L11G	4.64
L11K	4.71
L11P	4.78
L11V	4.55
L11A	4.77
L11Q	5.37
L11N	5.15
L11E	4.32
L11M	4.71
L11R	5.29
L11W	4.13
W8D	5.13
W8P	5.25
W8V	5.07
W8E	4.69
W8T	5.19
W8K	5.19
W8M	5.1
W8Y	5.13
W8H	4.99
W8C	4.93
W8F	4.24
W8A	5.18

Variant	protein stability index
W8G	5.54
W8R	4.91
W8N	5.03
W8I	4.24
I9S	4.62
I9C	4.12
I9Y	4.73
I9Q	5.24
I9D	5.22
I9V	4.86
I9T	5.1
I9G	5.35
E6L	2.7
E6F	3.56
E6R	4.66
E6K	3.98
E6C	4.35
E6S	4.03
E6H	3.98
E6T	4.41
E6Y	2.88
E6A	3.32
E6N	4.52
E6M	3.69

Variant	protein stability index
E6D	4.31
E6P	3.58
D24K	4.42
D24G	3.72
D24C	3.29
D24A	3.91
D24S	4.27
D24R	3.89
D24T	4.16
D24P	3.66
D24Y	3.65
D24I	3.83
D24M	3.88
D24F	3.27
D24L	3.53
D24Q	4.13
Y13E	5.18
Y13V	4.64
Y13H	4.87
Y13M	4.76
Y13C	4.33
Y13S	5.11
Y13A	4.36
Y13I	3.95

Variant	protein stability index
Y13F	4.51
Y13T	4.49
Y13W	4.18
Y13R	5.28
Y13K	5.3
Y13L	4.8
I2K	4.8
I2V	4.67
I2C	4.62
I2N	5
I2T	4.69
I2P	3.84
I2G	5.25
I2Y	4.2
I2M	4.72
I2E	5.32
I2H	4.91
I2W	4.26
I2F	4.19
P19S	4.99
P19E	4.65
P19Q	4.68
P19N	5.13
P19D	4.77

Variant	protein stability index
P19K	4.95
P19G	4.46
P19M	4.71
P19Y	4.06
P19A	4.59
P19L	3.91
N18S	4.91
N18D	4.86
N18F	4
N18R	4.31
N18V	4.32
N18P	4.89
N18I	4.19
N18A	4.32
N18K	4.46
N18M	4.42
N18T	4.27
N18E	4.48
N18Y	3.71
N18Q	3.97
N18L	3.79
N18C	3.99
